{
  "source": "patent US20190270815A1",
  "about": "(WUXI BIOLOGICS IRELAND, published 2019)",
  "binders": {"B1": {"name": "1.103.11 hAb (antibody, V domains shown)", "VH": "QLQLQESGPGLVKPSETLTLTCTVSADSISSTTYYWVWIRQPPGKGLEWIGSISYSGSTYYNPSLKSRVTVSVDTSKNQFSLKLNSVAATDTALYYCARHLGYNGRYLPFDYWGQGTLVTVSS", "VL": "QSALTQPASVSGSPGQSITISCTGTSSDVGFYNYVSWYQQHPGKAPELMIYDVSNRPSGVSDRFSGSKSGNTASLTISGLQAEDEADYYCSSYTNISTWVFGGGTKLTVL", "notes": "fully human monoclonal antibody with a human constant region of IgG4 isotype"}},
  "key": {"[1]": {"molecular_target": "T1, hPD-1 ECD-His point mutant D 85 (to alanine) (human, UniProt Q15116 25-170)", "T1 construct": "extracellular domain", "T1 sequence (Q15116 other isoform, or with tags, fused parts or gaps mutant)": "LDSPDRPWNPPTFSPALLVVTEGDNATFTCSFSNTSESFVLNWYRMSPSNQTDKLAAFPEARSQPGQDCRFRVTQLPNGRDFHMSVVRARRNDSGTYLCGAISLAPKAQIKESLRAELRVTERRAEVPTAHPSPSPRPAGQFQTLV", "test": "ELISA, antibody coated, His-tagged PD-1 mutant supernatant; fold change vs silent alanine substitutions", "procedure": "(§1) After interacting with the supernatant that contains quantified PD-1 mutant, HRP conjugated anti-His antibody (Rockland, Cat#200-303-382) was added as detection antibody. Absorbance was normalized according to the average of control mutants. After setting an additional cutoff to t4he binding fold change (<0.55), the final determined epitope residues were identified."}, "[2]": {"molecular_target": "T2, hPD-1 ECD-His point mutant F 82 (to alanine) (human, UniProt Q15116 25-170)", "T2 construct": "extracellular domain", "T2 sequence (Q15116 other isoform, or with tags, fused parts or gaps mutant)": "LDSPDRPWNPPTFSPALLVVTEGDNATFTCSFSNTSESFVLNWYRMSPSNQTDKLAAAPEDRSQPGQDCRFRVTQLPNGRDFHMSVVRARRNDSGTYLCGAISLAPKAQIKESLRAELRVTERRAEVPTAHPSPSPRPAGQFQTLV", "test": "ELISA, antibody coated, His-tagged PD-1 mutant supernatant; fold change vs silent alanine substitutions", "procedure": "as §1"}, "[3]": {"molecular_target": "T3, hPD-1 ECD-His point mutant C 123 (to alanine) (human, UniProt Q15116 25-170)", "T3 construct": "extracellular domain", "T3 sequence (Q15116 other isoform, or with tags, fused parts or gaps mutant)": "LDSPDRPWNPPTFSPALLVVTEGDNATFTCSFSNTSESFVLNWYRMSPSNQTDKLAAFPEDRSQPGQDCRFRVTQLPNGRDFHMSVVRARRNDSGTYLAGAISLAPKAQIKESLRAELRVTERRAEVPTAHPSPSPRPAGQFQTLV", "test": "ELISA, antibody coated, His-tagged PD-1 mutant supernatant; fold change vs silent alanine substitutions", "procedure": "as §1"}, "[4]": {"molecular_target": "T4, hPD-1 ECD-His point mutant P 83 (to alanine) (human, UniProt Q15116 25-170)", "T4 construct": "extracellular domain", "T4 sequence (Q15116 other isoform, or with tags, fused parts or gaps mutant)": "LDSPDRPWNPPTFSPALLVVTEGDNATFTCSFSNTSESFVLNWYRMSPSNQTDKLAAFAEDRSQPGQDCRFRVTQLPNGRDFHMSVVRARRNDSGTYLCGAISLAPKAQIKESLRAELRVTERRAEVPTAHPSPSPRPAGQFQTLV", "test": "ELISA, antibody coated, His-tagged PD-1 mutant supernatant; fold change vs silent alanine substitutions", "procedure": "as §1"}, "[5]": {"molecular_target": "T5, hPD-1 ECD-His point mutant A 132 (to glycine) (human, UniProt Q15116 25-170)", "T5 construct": "extracellular domain", "T5 sequence (Q15116 other isoform, or with tags, fused parts or gaps mutant)": "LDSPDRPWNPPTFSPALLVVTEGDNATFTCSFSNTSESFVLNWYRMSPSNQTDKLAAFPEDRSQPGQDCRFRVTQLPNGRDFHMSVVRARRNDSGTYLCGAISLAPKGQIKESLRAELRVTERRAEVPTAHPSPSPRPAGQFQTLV", "test": "ELISA, antibody coated, His-tagged PD-1 mutant supernatant; fold change vs silent alanine substitutions", "procedure": "as §1"}, "[6]": {"molecular_target": "T6, hPD-1 ECD-His point mutant R 94 (to alanine) (human, UniProt Q15116 25-170)", "T6 construct": "extracellular domain", "T6 sequence (Q15116 other isoform, or with tags, fused parts or gaps mutant)": "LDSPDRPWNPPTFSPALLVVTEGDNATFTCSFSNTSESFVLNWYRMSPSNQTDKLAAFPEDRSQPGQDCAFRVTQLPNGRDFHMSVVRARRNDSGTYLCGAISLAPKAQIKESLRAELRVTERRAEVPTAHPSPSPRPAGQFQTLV", "test": "ELISA, antibody coated, His-tagged PD-1 mutant supernatant; fold change vs silent alanine substitutions", "procedure": "as §1"}, "[7]": {"molecular_target": "T7, hPD-1 ECD-His point mutant I 126 (to alanine) (human, UniProt Q15116 25-170)", "T7 construct": "extracellular domain", "T7 sequence (Q15116 other isoform, or with tags, fused parts or gaps mutant)": "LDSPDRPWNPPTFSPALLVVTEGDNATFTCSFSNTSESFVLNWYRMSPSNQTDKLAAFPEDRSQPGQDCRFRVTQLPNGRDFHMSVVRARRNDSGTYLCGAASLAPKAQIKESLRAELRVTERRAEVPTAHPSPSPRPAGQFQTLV", "test": "ELISA, antibody coated, His-tagged PD-1 mutant supernatant; fold change vs silent alanine substitutions", "procedure": "as §1"}, "[8]": {"molecular_target": "T8, hPD-1 ECD-His point mutant M 108 (to alanine) (human, UniProt Q15116 25-170)", "T8 construct": "extracellular domain", "T8 sequence (Q15116 other isoform, or with tags, fused parts or gaps mutant)": "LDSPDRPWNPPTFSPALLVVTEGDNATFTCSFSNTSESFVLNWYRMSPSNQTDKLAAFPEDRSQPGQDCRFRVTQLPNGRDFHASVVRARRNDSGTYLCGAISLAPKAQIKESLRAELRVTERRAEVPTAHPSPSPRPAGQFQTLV", "test": "ELISA, antibody coated, His-tagged PD-1 mutant supernatant; fold change vs silent alanine substitutions", "procedure": "as §1"}, "[9]": {"molecular_target": "T9, hPD-1 ECD-His point mutant K 131 (to alanine) (human, UniProt Q15116 25-170)", "T9 construct": "extracellular domain", "T9 sequence (Q15116 other isoform, or with tags, fused parts or gaps mutant)": "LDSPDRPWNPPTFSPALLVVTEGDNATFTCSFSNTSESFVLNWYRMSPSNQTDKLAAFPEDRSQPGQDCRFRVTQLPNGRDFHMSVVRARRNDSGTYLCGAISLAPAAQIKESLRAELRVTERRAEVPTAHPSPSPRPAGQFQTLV", "test": "ELISA, antibody coated, His-tagged PD-1 mutant supernatant; fold change vs silent alanine substitutions", "procedure": "as §1"}, "[10]": {"molecular_target": "T10, hPD-1 ECD-His point mutant D 117 (to alanine) (human, UniProt Q15116 25-170)", "T10 construct": "extracellular domain", "T10 sequence (Q15116 other isoform, or with tags, fused parts or gaps mutant)": "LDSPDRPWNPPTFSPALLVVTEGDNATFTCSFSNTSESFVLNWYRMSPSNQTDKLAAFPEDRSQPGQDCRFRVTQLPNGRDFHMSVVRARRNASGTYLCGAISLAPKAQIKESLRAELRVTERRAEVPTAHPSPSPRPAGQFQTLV", "test": "ELISA, antibody coated, His-tagged PD-1 mutant supernatant; fold change vs silent alanine substitutions", "procedure": "as §1"}, "[11]": {"molecular_target": "T11, hPD-1 ECD-His point mutant N 49 (to alanine) (human, UniProt Q15116 25-170)", "T11 construct": "extracellular domain", "T11 sequence (Q15116 other isoform, or with tags, fused parts or gaps mutant)": "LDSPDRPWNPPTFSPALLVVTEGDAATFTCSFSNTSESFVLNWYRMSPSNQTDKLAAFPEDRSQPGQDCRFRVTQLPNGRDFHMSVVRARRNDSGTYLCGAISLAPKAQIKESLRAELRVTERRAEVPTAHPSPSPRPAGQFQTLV", "test": "ELISA, antibody coated, His-tagged PD-1 mutant supernatant; fold change vs silent alanine substitutions", "procedure": "as §1"}, "[12]": {"molecular_target": "T12, hPD-1 ECD-His point mutant L 128 (to alanine) (human, UniProt Q15116 25-170)", "T12 construct": "extracellular domain", "T12 sequence (Q15116 other isoform, or with tags, fused parts or gaps mutant)": "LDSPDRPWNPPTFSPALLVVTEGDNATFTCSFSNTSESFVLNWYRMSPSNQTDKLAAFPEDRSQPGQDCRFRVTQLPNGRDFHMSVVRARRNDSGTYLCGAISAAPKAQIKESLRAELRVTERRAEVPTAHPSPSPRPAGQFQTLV", "test": "ELISA, antibody coated, His-tagged PD-1 mutant supernatant; fold change vs silent alanine substitutions", "procedure": "as §1"}, "[13]": {"molecular_target": "T13, hPD-1 ECD-His point mutant I 134 (to alanine) (human, UniProt Q15116 25-170)", "T13 construct": "extracellular domain", "T13 sequence (Q15116 other isoform, or with tags, fused parts or gaps mutant)": "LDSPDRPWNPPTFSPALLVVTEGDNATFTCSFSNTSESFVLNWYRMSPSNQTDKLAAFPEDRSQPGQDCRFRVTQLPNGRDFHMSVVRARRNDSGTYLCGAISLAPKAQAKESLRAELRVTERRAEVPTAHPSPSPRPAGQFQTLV", "test": "ELISA, antibody coated, His-tagged PD-1 mutant supernatant; fold change vs silent alanine substitutions", "procedure": "as §1"}, "[14]": {"molecular_target": "T14, hPD-1 ECD-His point mutant A 50 (to glycine) (human, UniProt Q15116 25-170)", "T14 construct": "extracellular domain", "T14 sequence (Q15116 other isoform, or with tags, fused parts or gaps mutant)": "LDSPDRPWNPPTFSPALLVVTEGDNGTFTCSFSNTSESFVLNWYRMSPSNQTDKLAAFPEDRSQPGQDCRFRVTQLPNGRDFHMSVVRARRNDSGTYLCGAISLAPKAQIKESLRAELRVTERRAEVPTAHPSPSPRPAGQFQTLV", "test": "ELISA, antibody coated, His-tagged PD-1 mutant supernatant; fold change vs silent alanine substitutions", "procedure": "as §1"}, "[15]": {"molecular_target": "T15, hPD-1 ECD-His point mutant V 64 (to alanine) (human, UniProt Q15116 25-170)", "T15 construct": "extracellular domain", "T15 sequence (Q15116 other isoform, or with tags, fused parts or gaps mutant)": "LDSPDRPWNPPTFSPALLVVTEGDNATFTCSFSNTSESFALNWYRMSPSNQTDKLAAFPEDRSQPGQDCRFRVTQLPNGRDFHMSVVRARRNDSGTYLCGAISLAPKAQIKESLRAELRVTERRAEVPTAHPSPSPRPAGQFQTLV", "test": "ELISA, antibody coated, His-tagged PD-1 mutant supernatant; fold change vs silent alanine substitutions", "procedure": "as §1"}, "[16]": {"molecular_target": "T16, hPD-1 ECD-His point mutant V 144 (to alanine) (human, UniProt Q15116 25-170)", "T16 construct": "extracellular domain", "T16 sequence (Q15116 other isoform, or with tags, fused parts or gaps mutant)": "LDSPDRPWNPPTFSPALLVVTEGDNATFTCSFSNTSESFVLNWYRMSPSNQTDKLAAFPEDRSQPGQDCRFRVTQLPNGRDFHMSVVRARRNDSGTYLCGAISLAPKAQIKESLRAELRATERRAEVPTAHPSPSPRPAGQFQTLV", "test": "ELISA, antibody coated, His-tagged PD-1 mutant supernatant; fold change vs silent alanine substitutions", "procedure": "as §1"}, "[17]": {"molecular_target": "T17, murine PD-1 (Sino biological) (murine, UniProt Q02242 25-167, limits assumed)", "T17 sequence (looked up)": "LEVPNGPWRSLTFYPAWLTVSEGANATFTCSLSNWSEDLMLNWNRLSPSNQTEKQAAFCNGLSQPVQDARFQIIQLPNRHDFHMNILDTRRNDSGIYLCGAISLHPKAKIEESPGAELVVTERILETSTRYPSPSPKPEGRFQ", "test": "ELISA on plate-coated murine PD-1", "procedure": "3.3.1 Cross-reactivity to cynomolgus PD-1 and murine PD-1: Cross-reactivity was measured by ELISA. Plates (Nunc) were coated with cynomolgus PD-1 (Sino Biological) and murine PD-1 (Sino biological) at 1 μg/ml overnight at 4° C. After blocking and washing, […] antibodies were added to the plates and incubated at room temperature for 1 h. The plates were then washed and subsequently incubated with secondary antibody goat anti rat IgG1 HRP (Bethyl) and goat anti rat IgG2b HRP (Bethyl) for 45 min. After washing, TMB substrate was added and the interaction was stopped by 2M HCl. The absorbance at 450 nm was read using a microplate reader (Molecular Device)."}, "[18]": {"molecular_target": "T18, human PD-1 expressed on cells (human, UniProt Q15116 25-288)", "T18 construct": "whole, on cells; also called PD-1 expressing CHO cell; PD-1 transfected CHO-S cells", "T18 sequence (Q15116 25-288)": "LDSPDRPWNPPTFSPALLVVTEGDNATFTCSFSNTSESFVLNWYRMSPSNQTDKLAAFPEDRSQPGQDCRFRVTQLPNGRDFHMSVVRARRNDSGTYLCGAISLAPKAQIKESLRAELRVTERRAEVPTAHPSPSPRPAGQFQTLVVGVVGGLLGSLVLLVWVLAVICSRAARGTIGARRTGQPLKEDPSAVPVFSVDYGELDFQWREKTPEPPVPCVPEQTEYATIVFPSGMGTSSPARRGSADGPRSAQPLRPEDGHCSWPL", "test": "FACS on CHO-S cells expressing human PD-1", "procedure": "3.1 Binding affinity of PD-1 antibodies to cell surface PD-1 molecules tested by flow cytometry (FACS): Antibody binding affinity to cell surface PD-1 was performed by FACS analysis. CHO-S cells expressing human PD-1 were transferred in to 96-well U-bottom plates (BD) at a density of 5×10⁵ cells/ml. Tested antibodies were 1:2 serially diluted in wash buffer (1×PBS/1% BSA) and incubated with cells at 4° C. for 1 h. The secondary antibody goat anti-human IgG Fc FITC (3.0 moles FITC per mole IgG, (Jackson Immunoresearch Lab) was added and incubated at 4° C. in the dark for 1 h. The cells were then washed once and resuspended in 1×PBS/1% BSA, and analyzed by flow cytometery (BD). Fluorescence intensity will be converted to bound molecules/cell based on the quantitative beads Quantum™ MESF Kits, Bangs Laboratories, Inc.). KD was calculated using Graphpad Prism5."}},
  "data": [
    {"binder": "B1", "values": [
      {"measurement": "fold change", "setting": "[1]", "value": 0.24},
      {"measurement": "fold change", "setting": "[2]", "value": 0.65},
      {"measurement": "fold change", "setting": "[3]", "value": 0.46},
      {"measurement": "fold change", "setting": "[4]", "value": 0.3},
      {"measurement": "fold change", "setting": "[5]", "value": 0.53},
      {"measurement": "fold change", "setting": "[6]", "value": 0.7},
      {"measurement": "fold change", "setting": "[7]", "value": 0.64},
      {"measurement": "fold change", "setting": "[8]", "value": 0.56},
      {"measurement": "fold change", "setting": "[9]", "value": 0.43},
      {"measurement": "fold change", "setting": "[10]", "value": 0.73},
      {"measurement": "fold change", "setting": "[11]", "value": 0.73},
      {"measurement": "fold change", "setting": "[12]", "value": 0.32},
      {"measurement": "fold change", "setting": "[13]", "value": 0.69},
      {"measurement": "fold change", "setting": "[14]", "value": 0.73},
      {"measurement": "fold change", "setting": "[15]", "value": 0.32},
      {"measurement": "fold change", "setting": "[16]", "value": 0.22},
      {"measurement": "binding result", "setting": "[17]", "value": "no binding (tested: 1 g/ml antibodies (so in the source))"},
      {"measurement": "EC50", "setting": "[18]", "value": "~2", "unit": "nM"}
    ]}
  ]
}
